The text below walks through data of patent publication US20210269548A1 (Kyowa Kirin, published 2021).

Residue numbers refer to the chain shown, from its start. Names and notes keep the numbering of the source.

As a reminder, the Kd is the equilibrium constant for the complex coming apart.

Test [1] deals with human CSPG5-FLAG_Fc (human). Briefly: phage ELISA, immobilised antigen, anti-M13-HRP. On the procedure: (§1) In the ELISA, human CSPG5-FLAG_Fc and mouse CSPG5-FLAG_Fc were immobilized on MAXISORP (manufactured by NUNC, Inc.), followed by blocking using SuperBlock Blocking Buffer (manufactured by Thermo Fisher Scientific, Inc.). As a negative control, a plate on which Fc was immobilized was also prepared.
(§2) To each well, each phage clone was added and allowed to react at room temperature for 30 minutes, and thereafter, each well was washed with PBS-T. Subsequently, a solution obtained by diluting an anti-M13 antibody (manufactured by GE Healthcare, Inc.) labeled with horseradish peroxidase with PBS-T comprising 10% Block Ace (manufactured by Dainippon Pharmaceutical Co., Ltd.) was added to each well and incubated at room temperature for 30 minutes. After the microplate was washed 3 times with PBS-T, a 3,3′,5,5′-tetramethylbenzidine (TMB) chromogenic substrate solution (manufactured by DAKO, Inc.) was added thereto, followed by incubation at room temperature. The coloring reaction was stopped by adding a 0.5 mol/L sulfuric acid to each well, and an absorbance at a wavelength of 450 nm (reference wavelength: 570 nm) was measured using a microplate reader. […]
A general note: In an ELISA, binding on a coated surface is turned into a signal by an enzyme label.

Test [2] addresses mouse CSPG5-FLAG_Fc (mouse). The experiment in a line: phage ELISA, immobilised antigen, anti-M13-HRP. How it is done:
as §1, §2

In test [3] the target is T1, mouse CSPG5 (mouse, UniProt Q71M36 31-566).
T1 construct: Full-length gene expressed on Expi293F cells; also called mouse CSPG5/Expi293F cells
T1 sequence: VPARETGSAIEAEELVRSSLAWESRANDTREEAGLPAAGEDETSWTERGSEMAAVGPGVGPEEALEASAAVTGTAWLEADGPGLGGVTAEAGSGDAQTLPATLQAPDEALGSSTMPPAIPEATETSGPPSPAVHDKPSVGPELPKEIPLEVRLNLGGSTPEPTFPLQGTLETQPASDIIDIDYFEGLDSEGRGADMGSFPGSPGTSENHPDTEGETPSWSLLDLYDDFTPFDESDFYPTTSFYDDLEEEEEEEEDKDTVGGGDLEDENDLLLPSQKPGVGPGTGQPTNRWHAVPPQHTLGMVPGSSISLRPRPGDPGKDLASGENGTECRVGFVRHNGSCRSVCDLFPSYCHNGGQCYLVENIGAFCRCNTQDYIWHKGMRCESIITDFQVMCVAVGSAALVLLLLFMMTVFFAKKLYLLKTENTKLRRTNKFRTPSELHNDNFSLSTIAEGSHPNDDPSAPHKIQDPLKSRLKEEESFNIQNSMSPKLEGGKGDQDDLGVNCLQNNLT
Briefly: FACS, 10 µg/mL antibody, mouse CSPG5/Expi293F vs Expi293F. How it is done:
(§3) Expi293F cells, human CSPG5/Expi293F cells, mouse CSPG5/Expi293F cells, and monkey CSPG5/Expi293F cells were separately suspended in Staining Buffer (SB) of PBS comprising 0.1% NaN₃ and 1% FBS and dispensed in a round-bottom 96-well plate (manufactured by Becton, Dickinson and Company). After centrifugation (2000 rpm, 4° C., 2 minutes), the supernatant was removed, and to the resulting pellet, 10 μg/mL of each antibody obtained in Example 2 was added to suspend the pellet, and the resulting suspension was left to stand for 30 minutes at ice temperature. After further centrifugation (2000 rpm, 4° C., 2 minutes), the supernatant was removed, and the resulting pellet was washed with SB, and thereafter, 1 μg/mL of an RPE fluorescently labeled goat anti-human antibody (manufactured by Southern Biotech, Inc.) was added thereto, and the resultant was incubated for 30 minutes at ice temperature. After washing with SB, the cells were suspended in SB, and the fluorescence intensity of each cell was measured using a flow cytometer FACS CANTO II (manufactured by Becton, Dickinson and Company). Note that as a negative control, 10 μg/mL of the anti-AVM antibody was used.
(§4) The detection results were analyzed, and a mean fluorescence intensity (MFI) was calculated using a geometric mean. Further, with respect to the MFI when the concentration of each antibody was 10 μg/mL, the ratio of the MFI (mean fluorescence intensity ratio) between the human CSPG5/Expi293F cells and the Expi293F cells (parent cell line) was calculated. Also for the monkey CSPG5/Expi293F cells and the mouse CSPG5/Expi293F cells, the mean fluorescence intensity ratio relative to the Expi293F cells (parent cell line) was calculated by the same procedure, and the results are shown in Table 3.
On the technique in general: Flow cytometry measures light scatter and fluorescence of single cells or particles in a stream.

The target in test [4] is mouse CSPG5-GST (mouse). The experiment in a line: SPR Biacore T-100, antibody captured, mouse CSPG5-GST analyte. How it is done:
The affinity of the anti-CSPG5 antibodies, the CSPG5202 IgG4PE(R409K), and the AVM IgG4PE(R409K) CSPG5202 dscFv produced in Example 2 for human CSPG5 and mouse CSPG5 was measured using Biacore T-100 (GE Healthcare).
Each of the antibodies was immobilized on a […] sensor chip using a Human antibody Capture kit, and the binding ability was evaluated using human CSPG5-GST and mouse CSPG5-GST produced in Example 4 as analytes. The obtained sensorgram was analyzed with BIA evaluation software, and the dissociation constant (KD value) was calculated.

In test [5] the target is T2, human CSPG5 (human, UniProt O95196 31-566).
T2 construct: Full-length gene expressed on cell membrane (Expi293F, L929); also called human CSPG5/Expi293F cells; human CSPG5/L929#09
T2 sequence: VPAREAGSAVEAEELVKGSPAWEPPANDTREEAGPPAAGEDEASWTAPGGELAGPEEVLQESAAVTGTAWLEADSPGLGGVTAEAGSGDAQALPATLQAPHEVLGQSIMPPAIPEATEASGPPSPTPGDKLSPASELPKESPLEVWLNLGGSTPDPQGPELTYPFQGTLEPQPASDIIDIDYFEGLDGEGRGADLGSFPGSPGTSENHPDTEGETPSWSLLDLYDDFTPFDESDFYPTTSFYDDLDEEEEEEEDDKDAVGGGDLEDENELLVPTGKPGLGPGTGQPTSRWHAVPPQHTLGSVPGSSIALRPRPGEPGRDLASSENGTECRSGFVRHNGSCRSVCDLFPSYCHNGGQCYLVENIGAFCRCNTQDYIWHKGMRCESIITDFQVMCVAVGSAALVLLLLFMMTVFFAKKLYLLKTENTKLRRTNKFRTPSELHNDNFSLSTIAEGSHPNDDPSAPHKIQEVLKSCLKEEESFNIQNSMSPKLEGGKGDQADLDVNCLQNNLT
Briefly: FACS, 10 µg/mL antibody, human CSPG5/Expi293F vs Expi293F. How it is done: as §3, §4

Test [6] deals with T3, monkey CSPG5 (monkey (rhesus monkey), UniProt O95196 31-566 (human entry)).
T3 construct: Full-length gene expressed on Expi293F cells; also called monkey CSPG5/Expi293F cells; rhesus monkey CSPG5
T3 chain: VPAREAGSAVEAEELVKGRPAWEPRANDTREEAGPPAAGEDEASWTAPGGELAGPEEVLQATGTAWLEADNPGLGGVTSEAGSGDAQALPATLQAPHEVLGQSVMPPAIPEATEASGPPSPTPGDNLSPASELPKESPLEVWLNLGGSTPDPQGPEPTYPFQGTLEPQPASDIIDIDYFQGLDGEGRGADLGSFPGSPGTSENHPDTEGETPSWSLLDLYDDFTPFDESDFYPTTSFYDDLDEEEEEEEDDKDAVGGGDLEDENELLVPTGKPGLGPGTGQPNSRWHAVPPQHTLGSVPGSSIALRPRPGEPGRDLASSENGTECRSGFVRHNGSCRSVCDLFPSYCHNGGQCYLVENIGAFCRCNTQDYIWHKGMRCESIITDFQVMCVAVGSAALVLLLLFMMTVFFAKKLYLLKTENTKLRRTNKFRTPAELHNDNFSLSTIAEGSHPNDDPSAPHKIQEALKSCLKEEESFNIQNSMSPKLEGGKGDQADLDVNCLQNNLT
The experiment in a line: FACS, 10 µg/mL antibody, monkey CSPG5/Expi293F vs Expi293F. On the procedure:
as §3, §4

B1: pCANTAB_CSPG5115 phage clone (scFv, V domains shown)
VH: EVQLVQSGAEVKKPGASLKVSCKASGYSFTDYIIHWVRQAPGQSLEWMGWINGGSGVPKYSDKFQGRVTITRDTSANTAYMEIRSLGSEDTAVYYCARGGVCSGDKCYYYGMDVWGQGTTVTVSS
VL: QSVLTQPPSVSVSPGQTASITCSGDKLGDKYSWWYQQKPGQSPLLVIHQDNKRPSGIPERFSGSNSGNTATLTIVGTQAMDEADYYCQAWDRGVVFGGGTKLTVL
notes: also called CSPG5115 scFv on phage
Take B1: the binding result in test [1] and in test [2] was “binds” throughout.

B2: CSPG5115 scFv-hG4PE(R409K) (Fc fusion)
VH: B1 VH
VL: B1 VL
notes: also called anti-CSPG5 scFv-Fc antibody
B2: the results for the “Mean fluorescence intensity ratio” value in test [3], in test [5] and in test [6] were 3.44 ratio to parent cell line, 3.24 ratio to parent cell line and 3.56 ratio to parent cell line, respectively. For the same molecule, in test [4], the dissociation constant (Kd) is ≤ 10 nM.

B3: pCANTAB_CSPG5168 phage clone (scFv, V domains shown)
VH: EVQLVETGGALVQPGGSLRLSCAGSGFIFSKYEMTWVRQAPGKGLEWVSTIGSLGLKTFYTDSVKGRFTTSRDNSRDTLFLQMDNLRVEDTAIYFCVKGGIRRADYWGKGTLVTVSS
VL: EIVMTQSPATLSLSPGERATLSCRASQSVSSYLAWYQQKPGQAPRLLIYDASNRATGIPARFSGSGSGTDFTLTISSLEPEDFAVYYCQQRSNWPLTFGGGTKVEIK
notes: also called CSPG5168 scFv on phage
In the case of B3, the binding result in test [1] and in test [2] was “binds” each time.

B4: CSPG5120 scFv-hG4PE(R409K) (Fc fusion)
VH: EVQLVQSGGGLVQPGGSLRLSCAASGFTFSNYWMTWVRQAPGEGPEWVANINQDGSQKYYVDSVKGRFTISRDNAKNSLNLQMNNLRAEDTALYYCAKSNAMDVWGQGTLVTVSS
VL: DIVMTQSPLSLPVTPGEPASISCRSSESLLHSNGYNYLNWYLQKPGQSPQLLIYLGSHRASGVPDRLSGSGSDTDFTLKISRVEAEDVGIYYCMQGRQTPITFGGGTKLEIK
notes: as for B2
Turning to B4, the “Mean fluorescence intensity ratio” value in test [3] was 20.4 ratio to parent cell line; in test [5] it was 18.5 ratio to parent cell line; in test [6], 8.01 ratio to parent cell line. For the same molecule, in test [4], the Kd was ≤ 10 nM.

B5: pCANTAB_CSPG5120 phage clone (scFv, V domains shown)
VH: B4 VH
VL: B4 VL
notes: also called CSPG5120 scFv on phage
As for B5, the binding result in test [1] and in test [2] was “binds” throughout.

B6: pCANTAB_CSPG5219 phage clone (scFv, V domains shown)
VH: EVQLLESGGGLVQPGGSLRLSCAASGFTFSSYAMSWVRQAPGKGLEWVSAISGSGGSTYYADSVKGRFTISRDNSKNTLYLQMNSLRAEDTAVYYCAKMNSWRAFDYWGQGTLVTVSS
VL: EIVLTQSPGTLSLSPGERATLSCRASQSVSSSYLAWYQQKPGQAPRLLIYGASSRATGIPDRFSGSGSGTDFTLTISRLEPEDFAVYYCQQLRRKGSTFGQGSKVEIK
notes: also called CSPG5219 scFv on phage
For B6, the binding result in test [1] and in test [2] was “binds” each time.

B7: pCANTAB_CSPG5206 phage clone (scFv, V domains shown)
VH: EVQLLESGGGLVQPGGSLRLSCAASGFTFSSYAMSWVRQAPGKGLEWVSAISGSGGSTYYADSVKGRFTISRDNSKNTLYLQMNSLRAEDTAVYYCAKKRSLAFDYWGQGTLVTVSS
VL: QSALTQPASVSGSPGQSITISCTGTSTDVNGYNYVSWYQQYAGKAPKLIIFDVSKRPSGVSNRFSGSKSGDTASLTISGLQAEDEADYHCSSYNRKRPPVLFGGGTKLTVL
notes: also called CSPG5206 scFv on phage
On to B7, for which the binding result in test [1] and in test [2] was “binds” in each case.

B8: pCANTAB_CSPG5201 phage clone (scFv, V domains shown)
VH: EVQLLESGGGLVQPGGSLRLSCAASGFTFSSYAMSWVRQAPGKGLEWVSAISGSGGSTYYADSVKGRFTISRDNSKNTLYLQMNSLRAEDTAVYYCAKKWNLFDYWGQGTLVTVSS
VL: B7 VL with N94R, K96L, P98L
notes: also called CSPG5201 scFv on phage
As for B8, the binding result in test [1] and in test [2] was “binds” in each case.

B9: pCANTAB_CSPG5207 phage clone (scFv, V domains shown)
VH: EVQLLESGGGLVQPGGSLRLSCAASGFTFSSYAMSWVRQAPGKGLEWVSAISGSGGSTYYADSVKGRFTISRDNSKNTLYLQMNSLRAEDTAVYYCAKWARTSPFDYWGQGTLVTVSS
VL: B7 VL with N94T, R95P, K96S, P98A, P99R
notes: also called CSPG5207 scFv on phage
Take B9: the binding result in test [1] and in test [2] was “binds” each time.

B10: pCANTAB_CSPG5230 phage clone (scFv, V domains shown)
VH: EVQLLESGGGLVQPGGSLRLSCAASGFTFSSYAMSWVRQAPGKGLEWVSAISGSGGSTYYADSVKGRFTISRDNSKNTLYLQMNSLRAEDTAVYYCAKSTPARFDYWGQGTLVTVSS
VL: B7 VL with N94H, R95T, K96R, R97P, P98A, P99T
notes: also called CSPG5230 scFv on phage
Regarding B10, the binding result in test [1] and in test [2] was “binds” each time.

B11: pCANTAB_CSPG5234 phage clone (scFv, V domains shown)
VH: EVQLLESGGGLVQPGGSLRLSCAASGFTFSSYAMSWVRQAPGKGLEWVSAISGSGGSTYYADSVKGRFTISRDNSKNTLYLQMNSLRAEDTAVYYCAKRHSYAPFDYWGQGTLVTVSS
VL: B7 VL with N94R, R95P, R97A, P98R, P99S
notes: also called CSPG5234 scFv on phage
For the molecule B11, the binding result in test [1] and in test [2] was “binds” in each case.

B12: pCANTAB_CSPG5214 phage clone (scFv, V domains shown)
VH: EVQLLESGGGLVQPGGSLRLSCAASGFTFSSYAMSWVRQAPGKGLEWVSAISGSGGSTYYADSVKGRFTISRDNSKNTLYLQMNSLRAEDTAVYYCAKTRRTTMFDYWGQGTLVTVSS
VL: B7 VL with R95P, K96H, R97H, P98S, P99G
notes: also called CSPG5214 scFv on phage
For B12, the binding result in test [1] and in test [2] was “binds” in each case.
